Test results published in patent publication US7838231 (REGENTS OF THE UNIVERSITY OF MICHIGAN, dated 2010).

T1: full-length human nephrocystin-5 (NPHP5), yeast two-hybrid fusion (human, UniProt Q15051 1-598)
T1 construct: Full-length NPHP5 cDNA (598 amino acid residues) fused to a GAL4 domain; also called KIAA0036
T1 sequence: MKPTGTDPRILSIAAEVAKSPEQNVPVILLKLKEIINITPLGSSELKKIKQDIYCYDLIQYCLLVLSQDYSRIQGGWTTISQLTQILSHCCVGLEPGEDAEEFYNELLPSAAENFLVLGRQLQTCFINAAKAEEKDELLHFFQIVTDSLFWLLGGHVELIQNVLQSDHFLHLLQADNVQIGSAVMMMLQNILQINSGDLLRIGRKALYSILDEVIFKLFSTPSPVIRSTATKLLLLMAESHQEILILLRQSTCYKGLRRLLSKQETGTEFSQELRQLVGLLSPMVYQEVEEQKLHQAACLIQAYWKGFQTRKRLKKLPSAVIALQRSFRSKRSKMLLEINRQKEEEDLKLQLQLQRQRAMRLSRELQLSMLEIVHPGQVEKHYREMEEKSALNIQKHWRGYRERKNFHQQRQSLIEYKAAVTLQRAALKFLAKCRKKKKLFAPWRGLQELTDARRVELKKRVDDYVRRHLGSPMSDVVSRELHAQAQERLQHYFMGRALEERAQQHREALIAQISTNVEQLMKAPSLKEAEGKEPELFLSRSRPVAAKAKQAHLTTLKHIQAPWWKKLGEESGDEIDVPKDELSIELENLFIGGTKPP

B1: BBS5, human full length, yeast two-hybrid prey (other, UniProt Q8N3I7 1-341, looked up, not shown: large carriers)
chain: MSVLDALWEDRDVRFDLSAQQMKTRPGEVLIDCLDSIEDTKGNNGDRGRLLVTNLRILWHSLALSRVNVSVGYNCILNITTRTANSKLRGQTEALYILTKCNSTRFEFIFTNLVPGSPRLFTSVMAVHRAYETSKMYRDFKLRSALIQNKQLRLLPQEHVYDKINGVWNLSSDQGNLGTFFITNVRIVWHANMNDSFNVSIPYLQIRSIKIRDSKFGLALVIESSQQSGGYVLGFKIDPVEKLQESVKEINSLHKVYSASPIFGVDYEMEEKPQPLEALTVEQIQDDVEIDSDGHTDAFVAYFADGNKQQDREPVFSEELGLAIEKLKDGFTLQGLWEVMS
B2: BBS1, human full length, yeast two-hybrid prey (other, UniProt Q8NFJ9 1-593, looked up, not shown: large carriers)
chain: MAAASSSDSDACGAESNEANSKWLDAHYDPMANIHTFSACLALADLHGDGEYKLVVGDLGPGGQQPRLKVLKGPLVMTESPLPALPAAAATFLMEQHEPRTPALALASGPCVYVYKNLRPYFKFSLPQLPPNPLEQDLWNQAKEDRIDPLTLKEMLESIRETAEEPLSIQSLRFLQLELSEMEAFVNQHKSNSIKRQTVITTMTTLKKNLADEDAVSCLVLGTENKELLVLDPEAFTILAKMSLPSVPVFLEVSGQFDVEFRLAAACRNGNIYILRRDSKHPKYCIELSAQPVGLIRVHKVLVVGSTQDSLHGFTHKGKKLWTVQMPAAILTMNLLEQHSRGLQAVMAGLANGEVRIYRDKALLNVIHTPDAVTSLCFGRYGREDNTLIMTTRGGGLIIKILKRTAVFVEGGSEVGPPPAQAMKLNVPRKTRLYVDQTLREREAGTAMHRAFQTDLYLLRLRAARAYLQALESSLSPLSTTAREPLKLHAVVQGLGPTFKLTLHLQNTSTTRPVLGLLVCFLYNEALYSLPRAFFKVPLLVPGLNYPLETFVESLSNKGISDIIKVLVLREGQSAPLLSAHVNMPGSEGLAAA
B3: BBS8, human full length, yeast two-hybrid prey (other, UniProt Q8TAM2 1-541, looked up, not shown: large carriers)
chain: MSSEMEPLLLAWSYFRRRKFQLCADLCTQMLEKSPYDQEPDPELPVHQAAWILKARALTEMVYIDEIDVDQEGIAEMMLDENAIAQVPRPGTSLKLPGTNQTGGPSQAVRPITQAGRPITGFLRPSTQSGRPGTMEQAIRTPRTAYTARPITSSSGRFVRLGTASMLTSPDGPFINLSRLNLTKYSQKPKLAKALFEYIFHHENDVKTIHLEDVVLHLGIYPFLLRNKNHIEKNALDLAALSTEHSQYKDWWWKVQIGKCYYRLGMYREAEKQFKSALKQQEMVDTFLYLAKVYVSLDQPVTALNLFKQGLDKFPGEVTLLCGIARIYEEMNNMSSAAEYYKEVLKQDNTHVEAIACIGSNHFYSDQPEIALRFYRRLLQMGIYNGQLFNNLGLCCFYAQQYDMTLTSFERALSLAENEEEAADVWYNLGHVAVGIGDTNLAHQCFRLALVNNNNHAEAYNNLAVLEMRKGHVEQARALLQTASSLAPHMYEPHFNFATISDKIGDLQRSYVAAQKSEAAFPDHVDTQHLIKQLRQHFAML
B4: BBS6, human full length, yeast two-hybrid prey (other, UniProt Q9NPJ1 1-570, looked up, not shown: large carriers)
chain: MSRLEAKKPSLCKSEPLTTERVRTTLSVLKRIVTSCYGPSGRLKQLHNGFGGYVCTTSQSSALLSHLLVTHPILKILTASIQNHVSSFSDCGLFTAILCCNLIENVQRLGLTPTTVIRLNKHLLSLCISYLKSETCGCRIPVDFSSTQILLCLVRSILTSKPACMLTRKETEHVSALILRAFLLTIPENAEGHIILGKSLIVPLKGQRVIDSTVLPGILIEMSEVQLMRLLPIKKSTALKVALFCTTLSGDTSDTGEGTVVVSYGVSLENAVLDQLLNLGRQLISDHVDLVLCQKVIHPSLKQFLNMHRIIAIDRIGVTLMEPLTKMTGTQPIGSLGSICPNSYGSVKDVCTAKFGSKHFFHLIPNEATICSLLLCNRNDTAWDELKLTCQTALHVLQLTLKEPWALLGGGCTETHLAAYIRHKTHNDPESILKDDECTQTELQLIAEAFCSALESVVGSLEHDGGEILTDMKYGHLWSVQADSPCVANWPDLLSQCGCGLYNSQEELNWSFLRSTRRPFVPQSCLPHEAVGSASNLTLDCLTAKLSGLQVAVETANLILDLSYVIEDKN
B5: BBS4, human full length, yeast two-hybrid prey (other, UniProt Q96RK4 1-519, looked up, not shown: large carriers)
chain: MAEERVATRTQFPVSTESQKPRQKKAPEFPILEKQNWLIHLHYIRKDYEACKAVIKEQLQETQGLCEYAIYVQALIFRLEGNIQESLELFQTCAVLSPQSADNLKQVARSLFLLGKHKAAIEVYNEAAKLNQKDWEISHNLGVCYIYLKQFNKAQDQLHNALNLNRHDLTYIMLGKIHLLEGDLDKAIEVYKKAVEFSPENTELLTTLGLLYLQLGIYQKAFEHLGNALTYDPTNYKAILAAGSMMQTHGDFDVALTKYRVVACAVPESPPLWNNIGMCFFGKKKYVAAISCLKRANYLAPFDWKILYNLGLVHLTMQQYASAFHFLSAAINFQPKMGELYMLLAVALTNLEDIENAKRAYAEAVHLDKCNPLVNLNYAVLLYNQGEKKNALAQYQEMEKKVSLLKDNSSLEFDSEMVEMAQKLGAALQVGEALVWTKPVKDPKSKHQTTSTSKPASFQQPLGSNQALGQAMSSAAAYRTLPSGAGGTSQFTKPPSLPLEPEPAVESSPTETSEQIREK

The binders below were run against T1, full-length human nephrocystin-5 … (assay: direct yeast two-hybrid assay).

Binding result, no binding:
B1
B2
B3
B4
B5
